Laboratory results from patent US20220380409A1 (CALIFORNIA INSTITUTE OF TECHNOLOGY, published 2022).
Square brackets hold non-standard residues; d marks the D form. Ends that are not written are not given here. Pra = C#CC[C@H](N)C(=O)O; Az4 = not defined here; PEG = not defined here

Assays:
[1] = target: T1, LISDAELEAIFD (SEQ ID NO:34)-Az4-PEG-Biotin (Plasmodium falciparum, reading uncertain); experiment: in situ click bead screen of cyclic library C against LISDAELEAIFD-Az4-PEG-Biotin; hits formed a triazole linkage to the epitope peptide
T1 peptide: LISDAELEAIFD-{Az4-PEG-biotin}

[2] = target: T2, PfLDH protein (Plasmodium falciparum, UniProt Q27743 2-316); experiment: in situ click bead screen of azide-modified cyclic library C with pfLDH and alkyne-modified hevwh anchor; hit found by triazole formation with the primary ligand
T2 construct: also called Plasmodium falciparum LDH protein

[3] = target: T2, PfLDH protein; experiment: ELISA titration of PfLDH protein on the ligand (FIG. 11)
[4] = target: T3, GST-PvLDH (Plasmodium berghei, UniProt P84793 1-313); experiment: ELISA: 5 uM biotinylated ligand on a streptavidin plate, GST-PvLDH overnight, antiGST-HRP detection (FIG. 10)
T3 construct: Printed as 'whole PvLDH' and 'GST-PvLDH'; also called whole PvLDH protein; not shown: glutathione S-transferase (GST) tag

B1: PLKKG (SEQ ID NO:8), hit 4 against LDH (peptide)
peptide: [Pra]PLKKG
modifications: triazole (positions not given here); not fully specified (bridges)
notes: On-bead library member; variable region only
binding result [1]: binds

B2: ELYKY (SEQ ID NO:19), hit 3 against pan pLDH (peptide)
peptide: ELYKY
modifications: triazole (positions not given here); also: Az4 (azide residue) at position 1, ring closed through triazole, places not given here
notes: Secondary ligand; It was found on bead by in situ click with alkyne-modified hevwh in the presence of pfLDH
binding result [2]: binds

B3: YLGHK (SEQ ID NO:14), hit 1 against pan pLDH (peptide)
peptide: YLGHK
modifications: triazole (positions not given here); also: Az4 (azide residue) at position 1, ring closed through triazole, places not given here
notes: as for B2
binding result [2]: binds

B4: ILYWK (SEQ ID NO:7), hit 3 against LDH (peptide)
peptide: [Pra]ILYWK
modifications: triazole (positions not given here); not fully specified (bridges)
notes: as for B1
binding result [1]: binds

B5: RCM cyclized version of the HWSAN (SEQ ID NO:11) peptide (peptide)
peptide: HWSAN
modifications: staple (positions not given here); also: RCM between olefin-bearing non-natural residues, places not given here, biotinylated
notes: also called RCM cyclic peptide; one of the RCM cyclized peptides
EC50 [3]: 2.5 nM

B6: KKIHL (SEQ ID NO:6), hit 2 against LDH (peptide)
peptide: [Pra]KKIHL
modifications: triazole (positions not given here); not fully specified (bridges)
notes: as for B1
binding result [1]: binds

B7: HWSAN (SEQ ID NO:11) peptide, triazole-cyclized (peptide)
peptide: [Pra]HWSAN
modifications: triazole (positions not given here); also: biotinylated in plate assay, construct not described
notes: Variable region only; The exact biotinylated construct used on the streptavidin plate is not described; also called Hit 6
binding result [4]: binds | binding result [1]: binds

B8: RGGIL (SEQ ID NO:5), hit 1 against LDH (peptide)
peptide: [Pra]RGGIL
modifications: triazole (positions not given here); not fully specified (bridges)
notes: as for B1
binding result [1]: binds
